{"source": "patent US6177557", "key": {"[1]": {"biological_target": "basic fibroblast growth factor (bFGF) (UniProt P09038)", "sequence (P09038 135-288)": "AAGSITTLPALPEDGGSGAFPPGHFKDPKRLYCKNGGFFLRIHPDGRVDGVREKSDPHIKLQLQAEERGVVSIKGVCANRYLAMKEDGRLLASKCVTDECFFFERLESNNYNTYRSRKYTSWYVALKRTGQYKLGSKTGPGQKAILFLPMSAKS", "test": "filter"}, "thrombin (alpha) (human)": {"biological_target": "thrombin (alpha) (human) (UniProt P00734+P00734)", "test": "filter"}, "[2]": {"conditions": "bulk pool, text also says after 12 rounds, apparently unselected"}}}
{"sequence": "GGGAGGACGATGCGGGGGGCTATGCGATACAGTCGCGNTANGCTAGGCGCAGACGAGCGGGA [m26]", "values": [{"measurement": "Kd", "setting": "[1]; PBS", "result": 0.0016, "unit": "µM"}]}
{"sequence": "GGGAGGACGATGCGGNCAGACGACGACGGGGA [DNA SELEX pool Experiment 3 round 10]", "values": [{"measurement": "Kd", "setting": "[1]; round 10 pool", "result": 0.0025, "unit": "µM"}]}
{"sequence": "GGGAGGACGATGCGGNCAGACGACGACGGGGA [DNA random pool 30N7.1PS (round 0)]", "values": [{"measurement": "Kd", "setting": "[1]; round 0 pool", "result": 0.3, "unit": "µM"}]}
{"sequence": "AGATGCCTGTCGAGCATGCTNGTAGCTAAACTGCTTTGTCGACGGG [30N DNA pool after SELEX]", "values": [{"measurement": "Kd", "setting": "thrombin (alpha) (human); pool after 12 rounds", "result": 0.008, "unit": "µM"}]}
{"sequence": "AGATGCCTGTCGAGCATGCTNGTAGCTAAACTGCTTTGTCGACGGG [bulk 60N DNA]", "values": [{"measurement": "Kd", "setting": "thrombin (alpha) (human); [2]", "result": 5, "unit": "µM"}]}
{"sequence": "GGGAGACAAGAAUAACGCUCAANNNNNNNNNNNNNNNNNNNNNNNNNNNNNNUUCGACAGGAGGCUCACAACAGGC [2'-NH2 starting random RNA A]", "values": [{"measurement": "Kd", "setting": "[1]; 2'-NH2 pyrimidines, unselected pool, +/-11", "result": 0.065, "unit": "µM"}]}
{"sequence": "GGGAGCUCAGAAUAAACGCUCAANNNNNNNNNNNNNNNNNNNNNNNNNNNNNNUUCGACAUGAGGCCCGGAUCCGGC [random RNA A (unmodified)]", "values": [{"measurement": "Kd", "setting": "[1]; unselected pool, PBS, 37 C", "result": 0.3, "unit": "µM"}]}
{"sequence": "AGATGCCTGTCGAGCATGCTNGTAGCTAAACTGCTTTGTCGACGGG [bulk 30N DNA]", "values": [{"measurement": "Kd", "setting": "thrombin (alpha) (human); [2]", "result": 8, "unit": "µM"}]}
{"sequence": "AGATGCCTGTCGAGCATGCTNGTAGCTAAACTGCTTTGTCGACGGG [60N DNA pool after SELEX]", "values": [{"measurement": "Kd", "setting": "thrombin (alpha) (human); pool after 12 rounds", "result": 0.008, "unit": "µM"}]}
{"sequence": "GGGAGGACGAUGCGGNNNNNNNNNNNNNNNNNNNNNNNNNNNNNNNNNNNNNNNNNNNNNNNNNNCAGACGACUCGCCCGA [2'-NH2 starting random RNA B]", "values": [{"measurement": "Kd", "setting": "[1]; 2'-NH2 pyrimidines, unselected pool, +/-140", "result": 0.24, "unit": "µM"}]}
{"sequence": "GGGAGGACGATGCGGNCAGACGACGACGGGGA [DNA SELEX pool Experiment 3 round 11]", "values": [{"measurement": "Kd", "setting": "[1]; round 11 pool", "result": 0.004, "unit": "µM"}]}
{"sequence": "GGGAGAUGCCUGUCGAGCAUGCUGNNNNNNNNNNNNNNNNNNNNNNNNNNNNNNGUAGCUAAACAGCUUUGUCGACGGG [random RNA B (unmodified)]", "values": [{"measurement": "Kd", "setting": "[1]; unselected pool, PBS, 37 C", "result": 0.56, "unit": "µM"}]}
